Results: paper PMC2148136

Target: Gin4p kinase domain (codons 1-294), DBD fusion (S. cerevisiae) (UniProt Q12263)
Experiment: two-hybrid

Chain of UniProt Q12263 (Q12263 1-294): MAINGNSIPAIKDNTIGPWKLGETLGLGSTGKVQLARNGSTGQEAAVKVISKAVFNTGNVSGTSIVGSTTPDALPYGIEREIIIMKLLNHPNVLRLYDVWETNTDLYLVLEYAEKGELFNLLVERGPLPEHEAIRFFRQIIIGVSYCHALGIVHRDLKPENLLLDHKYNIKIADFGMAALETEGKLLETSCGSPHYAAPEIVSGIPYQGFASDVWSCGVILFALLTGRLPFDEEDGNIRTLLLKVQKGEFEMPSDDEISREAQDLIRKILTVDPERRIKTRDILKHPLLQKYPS

units of β-galactosidase activity (units of β-galactosidase activity): 727
Substance: COOH-terminal region of Cdc3p (the 101 COOH-terminal amino acids), AD fusion (domain or fragment)
